We go through one molecule from patent US20100303785A1 (RAMOT AT TEL AVIV UNIVERSITY, published 2010).

The experiment has as its target T1, Recombinant tau containing three tubulin binding repeats (3R) (Homo sapiens, UniProt P10636-5 1-410, limits assumed).
T1 construct: also called Tau protein 3R; 3R-tau
The experiment is described as follows: dot blot: peptide on nitrocellulose, incubated with 3R tau, detected with tau5 antibody.

T1 sequence (P10636 other isoform, or with tags, fused parts or gaps limits assumed): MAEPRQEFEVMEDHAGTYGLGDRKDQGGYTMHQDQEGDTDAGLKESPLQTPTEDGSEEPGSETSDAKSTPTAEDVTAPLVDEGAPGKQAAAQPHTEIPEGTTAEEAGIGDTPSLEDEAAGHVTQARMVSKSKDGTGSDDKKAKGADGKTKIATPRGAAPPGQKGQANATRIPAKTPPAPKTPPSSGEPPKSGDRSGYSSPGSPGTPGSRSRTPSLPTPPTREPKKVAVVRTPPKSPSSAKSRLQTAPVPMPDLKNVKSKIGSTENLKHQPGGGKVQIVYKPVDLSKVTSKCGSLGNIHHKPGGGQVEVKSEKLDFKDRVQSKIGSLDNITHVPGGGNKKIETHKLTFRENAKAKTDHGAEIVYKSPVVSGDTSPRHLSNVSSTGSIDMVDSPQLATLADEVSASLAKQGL
Description: The membrane was further incubated with 2 μM tau-three microtubule binding domain repeats (1.5 hr, room temperature). The non-specific sites were blocked by soaking in a blocking solution (10 mM Tris, 6 mM NaCl, 0.05% Tween 20) that was supplemented with 5% low-fat milk (1 hr at room temperature). The membrane was incubated with primary antibody (tau5 antibody 1:1000), dissolved in 5% milk in blocking solution (12 hours at 4 C). The membrane was then washed three times with the blocking solution (3×10 min), incubated with secondary antibody conjugated with horseradish peroxidase (HRP) (1 hr at room temperature) and washed again three times with blocking solution (10 min×3). The membrane was incubated with ECL reagent (Western blotting detection system; Amersham Biosciences) for 1 min, covered and exposed Biomax Light Film (Kodak, Rochester, N.Y., USA).

B1: vasoactive intestinal peptide VIP (peptide, UniProt P01282 125-152, looked up)
peptide: HSDAVFTDNYTRLRKQMAVKKYLNSILN
notes: Negative control peptide in the dot blot; the assay used the peptide itself; also called VIP peptide; control peptide
Consider B1, for which the binding result was “no binding”.
